According to a protein production outcome set (Wang et al. 2014):

Assay: label from the status in PepcDB records

Row | Sequence | protein production
1 | MKLMQIRKPLLKSSLLDQNLTEEEVNMKFVQDLLNWVDEMQVQLDRTEWGSDLPSVESHLENHKNVHRAIEEFESSLKEAKISEIQMTAPLKLSYTDKLHRLESQYAKLLNTSRNQERHLDTLHNFVTRATNELIWLNEKEESEVAYDWSERNSSVARKKSYHAELMRELEQKEESIKAVQEIAEQLLLENHPARLTIEAYRAAMQTQWSWILQLCQCVEQHIQE | not failed
2 | MKLNIKISDKLKLFFKIAFVSVVILFIVREFTSVFKNFNSEYFFMYRNKLDFLNLLIIAALGIISYIPLSFYDFILKRKVGIRLKNRKLYKYSWIASSIASLLGFGGATSLAFKQYFYGDYVDDKKKLLKEIGKIVALNLTGLSIVCCTYMGIRISSWNNLGIIKYAIGIIALYAPGFIIYSAYKYSKTKDKLEFFSTLGIIFISFLEWLTTIILIYATLRITGASISVLTFLPIYIEAAVVGMISMIPGGIGTFDLTFMTGLEVLGIPIEQTLLVIILYRISYYIVPALIGVLLFVHDFGGKINKKFNGLPYEIVSKVAYKIVVSLVFISGAIIVLSNIAPQYLLKIKLLKEILGKQVLGLSIGMSVVLGFLIMLAALMLKYRAKSIYKASMVLFILGIILSLTKGINPYELVFLIIVAYLLYLSKRMFYRDSFVVSCKNTLIDSGILIASFSIYFFILITFGTHLKYVGIVRKMPYKMAYKFGFIAFALVTVIYVAIYFLNIRRKIPVKTFDQCSEYVEKIIEEYKGDSLTHLVFLKDKYIYLNEDKDLFIQYEVYGDKLFVLGNPVGNNENLFREIEKFCEYADNYGYTPVFYQVNDEMISYLHSNGYDFMKIGEEAKVDVKEFKVVGNKMKSLKTSRSKVTKEGYTFHMVEPPFSKEFLDSLREISDEWLDGRKEKGFSVGFFDEDYLNKAPIAILKDREGEIKAFANIMYMYDNESFSVDLMRFSKNTPRGVMDFMFINLIEYGKENGYEIFNMGMAPLANVGLSKYAFWNEKLALQFYENGQALYSFKGLRRFKEKFSHNWEYKYIAYRRNTSILITVIQAAIVCSRNRNVDESIVVRNLKSLIK | failed
3 | MKLPLHKILKNGATVELDYIKPQEYEDVRRLLNVVIDEGQTYPQKQPLSQQEFAAYWLSQDAFVIRLSGEDGTQKPQTILGSFYIKPNFPGRCSHICNAGFIVQPGLRGQGIGKFMGESMLLVAAQLGYEAVMFNLVFETNIPSITLWQSLGFDIIGSVPDAAKLADGKVVKALIMYRALGV | not failed
4 | MKLPLIMLTALIALTACTSSSTGRKQVMLFSDAELDKMGAASFEDMKKKTPISTDKATNDFVQCVAKSITKNVAKSVHQGDWEVVVFDSAQVNAFALPSGKIGVYTGILNVTENQDQLGAIIGHEVGHVIEHHSNERLSANKLQNMGMAAATAAVGLSDVENKGLWMAGLGLGLQYGVIMPYSRAHESEADIVGQDLMARSGFEPSASIKLWQNMAKLSKGAPAEFMSTHPSNKTRINQLTEHLPSAMTLYKTDSRPNCQKPKVIPSPKA | failed
5 | MKLRYLNILKEKLGREPTFVELQAFSVMWSEHCGYSHTKKYIRRLPKTGFEGNAGVVNLDDYYSVAFKIESHNHPSAIEPYNGAATGVGGIIRDVLAMGARPTAIFDSLHMSRIIDGIIEGIADYGNSIGVPTVGGELRISSLYAHNPLVNVLAAGVVRNDMLVDSKASRPGQVIVIFGGATGRDGIHGASFASEDLTGDKATKLSIQVGDPFAEKMLIEAFLEMVEEGLVEGAQDLGAGGVLSATSELVAKGNLGAIVHLDRVPLREPDMEPWEILISESQERMAVVTSPQKASRILEIARKHLLFGDVVAEVIEEPVYRVMYRNDLVMEVPVQLLANAPEEDIVEYTPGKIPEFKRVEFEEVNAREVFEQYDHMVGTDTVVPPGFGAAVMRIKRDGGYSLVTHSRADLALQDTYWGTLIAVLESVRKTLSVGAEPLAITNCVNYGDPDVDPVGLSAMMTALKNACEFSGVPVASGNASLYNTYQGKPIPPTLVVGMLGKVNPQKVAKPKPSKVFAVGWNDFELEREKELWRAIRKLSEEGAFILSSSQLLTRTHVETFREYGLKIEVKLPEVRPAHQMVLVFSERTPVVDVPVKEIGTLSR | not failed
6 | MKLSIVIVNYRVPYFLEQCLLSVRKSAQGIDTEVWVVDNNSGDGSVEYLQSRFPEVHFVANEENVGFSRANNQAIRLSKGQYVLLLNPDTLIGESTLRTVVDFMDSKPNAGGLGVKMLNGHGRFLPESKRGFPSPWVSFCKLSGLNRLFPHSSRFNRYHLSYLSRDEVHKVEVLSGAFMLMRREALDKVGLLDERFFMYGEDIDLSYRLILGGYDNYYYPTPILHYKGESSSVSDVKYLRSFYGAMGLFFDKYYRNRMNPLLHGLINVVIKARTALALMLRSLRKVPAAEKPAKIFYWHPSEGEAAISAYHDRSHILINTDEVTCDRLLLTMEKLADRKHTFHLTNDTTKRVISP | failed
7 | MKLTDRLLKIASLVSDGKKIADIGTDHGYIPVYLLKEGKVPFAVLADVNKGPLDNAHKEVIQNNLLDKVDLRLGSGIEILEIGEVEEVIIAGMGGILISELLEAKKEVAHNVEKLILQPMQAQEELRYYLLNNGYEILEEVLVREDFRIYEIIVAKYTGKNTIIEDEIYYEVGIKLLENKDSLFNDFIEKKIKTYSSIVNKLEGKNGEAIDKKRKESEVAIKKLENLIK | not failed
8 | MKLTIPTWLTLLRIVMIPVLVVVFYLPYTWTNFASAGVFALAAITDWLDGWVARRYHQYSAFGAFLDPVADKLMVAVALFLIVQGHPTPWMAFWAAVIVGREIAVSALREWMAEIGQRAKVRVAAIGKIKTTAQMVALLCLLYSVTPGQMPTHEIWLGNLIFRAGYWTLAIAALLTLWSGFQYLQAAWPSLRADEKAAISNKPKKIESNS | failed
9 | MKLTLKNLSMAIMMSTIVMGSSAMAADSNEKIVIAHRGASGYLPEHTLPAKAMAYAQGADYLEQDLVMTKDDNLVVLHDHYLDRVTDVADRFPDRARKDGRYYAIDFTLDEIKSLKFTEGFDIENGKKVQTYPGRFPMGKSDFRVHTFEEEIEFVQGLNHSTGKNIGIYPEIKAPWFHHQEGKDIAAKTLEVLKKYGYTGKDDKVYLQCFDADELKRIKNELEPKMGMELNLVQLIAYTDWNETQQKQPDGSWVNYNYDWMFKPGAMKQVAEYADGIGPDYHMLIEETSQPGNIKLTGMVQDAQQNKLVVHPYTVRSDKLPEYTPDVNQLYDALYNKAGVNGLFTDFPDKAVKFLNKE | not failed
10 | MKLVKNLEIVESIFGDWDETIIWSCVQGIMGEVFVDSLDQPKSSLAKLGRKSSFGFLAGQPTLFLLEVCSGEDIILVPQHKGWSDLIESTYGQNAHSFKRYATKKDTLFERSRLEKFVTQLPNGFELRAIDEKVYNSCLEKEWSQDLVANYATYQYYKKQGIGYVVYYQGNIIAGASSYSTYKNGIEIEVDTHPDFRRRGLATIVAAQLILTCLDKGIYPSWDAHTRTSLNLSEKLGYEFSHEYIAYEID | failed
11 | MKLVLEGVDSFETLRVVGTFNCIDPDYVGSKRVTKKADVYAFEVILMELITGRKANYETLSVDEQNLVMWLRPKIKISTFLNLVDGTIATDKETIKRIKKIAKLAEYCTSQEVESRPLRASRTKSGNEVTSED | failed
12 | MKLVNVTNSYKQLVNKQLENTDAYFVKVYSAGNTTAVYSEAAHHVEVLIMNKNRRIRPTEVKEILAKLLKRLPKEAYDPDEISIIELNHVTEVSVPLKVSLME | failed
13 | MKLVVVSAGLSVPSSTRLLADRLAKATAARVPAEVEVVELRDLAVEIAHNFTNGFPGRALAAAIGAVTEADGLIVVTPVFSASYSGLFKSFFDVLEQGVLAGKPVLIAATGGSARHSLVLEHALRPLFAHLRAVVVPTGVYAASEDWGAEGLAERIERAAGELAGLMTGLMSGVSAVGPARDAQPRAGAEVSADGPAAAPAEGSVPRPRETVAQSATAGRGSRTDGFQVVPFEQQLAALRTR | failed
14 | MKMDTGALTFQQKIYWLVKQIPLGRVATYGQIAALCGWPRHGRYVGYALYRVAPNSDIPWHRVVNAQGKISYAPQRRGTDELQRWRLAAEGIIFTAGDRINLRRYQWQPPATVYQQLIWPEGAATDSAKALEHHHHHH | not failed
15 | MKMKILGISFGTKNGNNDTMCKVALKGAKEAGAEVEFIQMSSINIKHCTGCCACVKTLLSGKGSMCVLKDDFEWLLDKMKDADGIVVSDPIFEEGASGLFHTIMDRFGPRADRGNNIIGTKVAEAIGGKIPDSRMLNDKVISFMGIGGSDWGTRVQCEHAMLALIPMWKVIDNAWFPWAKELVMDDTRLVQVHQIGLNIVEAAKDFEKASYQGEEGVCPHCHNRLFYLEPGTKKAICALCGIVGELDTISGKTIFSFPEEQLGHAHDTLPGKFIHGDDIKKMEGHYAEVRKTQEFKERKTSYNFIETLTKEKQAGLEHHHHHH | failed
16 | MKNDTAALAADIVDFWKKAGPDKWFDKDAAFDNHFHDRFRDAHFAAARRELDGWLEGAESSLALMLLLDQFPRNCFRGTAHMYATDPLARFFADEAIRRGHDQAVSEDLRVFFYLPFSHAEDIAAQQRACDLNQPLGGLYLHHAEEHRDIVERFGRFPHRNGILLRETTPEERQYLEEGGFSG | not failed
17 | MKNICFINGSPRSKKANSTLYLNLIDKSLDSKNYTKYYIDTTSSIKGDLESTFKTLLDADYIILAFPLYVYSMPSLLVRFLEDYYIYLKNKDTISQKTNLYAVVNCGFPDAKMNVEALKIVFNCCKKLNINFRFGIGIGAGEFVNFSKNNPLLNKLSSCVYKSINKITYDIENQVSIEINNIFVNPKIPRRLFFIFGHIFWKKWAKRNGIKISALFDKPLEHHHHHH | failed
18 | MKNILPLMWVIILMFVISQGVSAKGKKEIPKSEYGSYIVIMDLNPAIAYEGDIKGFKATKPGKNKKINPKSANVRKYTSMLSKTHDAALAKANVKSKDKVHDYGIALNGFSAKMTHEQAVALSSQDGVAKVMPDVLRQKMTDNSPSFLDLGGPAGPWLKGYDGEGIVIGVIDTGIWPEHPSFTDDGSYSTPPILLDDSRPNCEFGNTGHRPDDVAFSCNNKLIGARQMLDTYRLIVGATSDEFDSARDEDGHGTHTSSTSGGNANVPANMLGNDYGLISGIAPRAHIVMYKGLGDLGGFGSDLAAAIDQAVADGVDVINYSIGSSSFAIGPDDVAFLFAENAGVFVATSNGNSGPAPATTGSPASTPWVTSVGASTQNRTYQGSASSVGEWEFFGASITAGTAELALIDSAEAGSELCIPGVLDPVAVAGKIVLCLRGAIARVDKSKAVNIAGGAGMILYNANDGESQVTDSHWVPSVHINNTDGLVIKGYISNDASTAVAQIMGGTYTEIDAPSMAGFSSRGPNLLSGDIIKPDVTAPGVNIIAGQTPASEGRGELFQMISGTSMSSPHVAGLFAMIKQAHPNWSPSTAKSALMTTAYQDVMKEDEATPADAFDMGAGHVNPGGKANKGSIFEPGLAYQAGLFEYAAYSCGAELGIFSPGTCGFLESLGIPTDPANLNLPSIGIANVIGSKTVYRSVTGVAKDSGWRTYSVDVDAPAGYEVSVLPASIKLKSGMSATYAVTITNTASPAGEWAHGSITWRDSNDHYSVYSPIAVKGALFEAPANITGSSETGSASIDVTFGYTGDYTASGYGLTAATVDIDSVVQDPDQIFDPGDTFSNAHAIVVSGAAYLRIAIPGVADPNADLDIFLLDSVGNIVGVSANGGTDELIEMELPGDDTYTLWVHGWSAPGGSTDYELYSWVVPMASGSLTVASAPSSATLGATETIGVDWTGATNGKWHFGVIGHSDAGGLIGATLVEVDNR | failed
19 | MKNKFIFITVVSILLIAAGIFTTIAMANANSVVVKAEVLNVRSGPGLAYDVTSQARKNEVLRVVGEENQWYKVQLDNGNSGWVASWLVENTDVSAASNSIAIVSSDGGLNVREKPSTSSTSLGLLNNGDQVTVTSQQNGWAQIQYNGKSAWVSSQYLTIRESVTKVDESELQTVTIRDDSTNIRNKPGRDGAVIEKANSGQGFAIQGVQGDWYKIRTTSGEEGYVANWVVDVSDKGQTSSPRSKTTKLSEATIVIDPGHGGNDPGAKGANGTIEKEMTLKTAKKLKEKLESRGAKVILTRNSDKYVSLKSRTNVAAENKADVFISIHFDSLEDSSKGVSGQTTYYYDNSDKSLAESINTTLGNDLPTTNRGSRVGDYYVVRENSQPAVLLELGYLSSAKDERNINSASYRSQIADSVTDGLSNYFSN | failed
